# Values quoted from earlier work as cited in PMC10696404.
# Values joined by “and” are separate entries in the source; they are usually repeats but may differ in a detail not shown here. Equal entries are not always repeated.
# Tests used:
# NRP1 (Homo sapiens) = NRP1 (Homo sapiens) (UniProt O14786); test: SPR
# JAG1 (Homo sapiens) = JAG1 (Homo sapiens) (UniProt P78504); test: SPR
# CD13 (Homo sapiens) = CD13 (Homo sapiens) (UniProt P15144); test: SPR
# DLL4 (Homo sapiens) = DLL4 (Homo sapiens) (UniProt Q9NR61); test: SPR
# CD146 ECD (Homo sapiens) = CD146 ECD (Homo sapiens) (UniProt P43121); test: bio-layer interferometry
# CEA (Homo sapiens) = CEA (Homo sapiens) (UniProt P06731); test: SPR
# CEA (Homo sapiens), sequence (P06731 35-676): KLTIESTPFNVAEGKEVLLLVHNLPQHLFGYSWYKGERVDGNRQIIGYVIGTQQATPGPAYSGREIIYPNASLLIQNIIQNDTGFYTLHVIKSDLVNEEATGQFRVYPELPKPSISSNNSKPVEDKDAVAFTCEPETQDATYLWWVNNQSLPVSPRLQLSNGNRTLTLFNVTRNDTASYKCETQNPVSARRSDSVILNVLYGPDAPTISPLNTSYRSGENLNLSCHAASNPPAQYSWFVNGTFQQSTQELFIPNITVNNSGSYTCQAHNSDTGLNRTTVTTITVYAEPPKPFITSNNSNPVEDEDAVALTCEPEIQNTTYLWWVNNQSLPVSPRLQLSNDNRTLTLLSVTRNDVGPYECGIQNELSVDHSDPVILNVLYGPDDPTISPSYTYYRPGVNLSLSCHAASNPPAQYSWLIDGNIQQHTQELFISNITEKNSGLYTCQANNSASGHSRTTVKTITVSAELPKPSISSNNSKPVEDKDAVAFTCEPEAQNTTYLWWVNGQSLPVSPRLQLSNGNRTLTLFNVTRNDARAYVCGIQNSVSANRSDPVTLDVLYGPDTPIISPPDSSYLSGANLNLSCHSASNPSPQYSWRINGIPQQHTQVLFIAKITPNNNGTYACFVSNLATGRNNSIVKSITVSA
# CD44s (Homo sapiens) = CD44s (Homo sapiens) (UniProt P16070); test: SPR
# ALCAM (Homo sapiens) = ALCAM (Homo sapiens) (UniProt Q13740); test: SPR
# ALCAM (Homo sapiens), sequence (Q13740 28-583): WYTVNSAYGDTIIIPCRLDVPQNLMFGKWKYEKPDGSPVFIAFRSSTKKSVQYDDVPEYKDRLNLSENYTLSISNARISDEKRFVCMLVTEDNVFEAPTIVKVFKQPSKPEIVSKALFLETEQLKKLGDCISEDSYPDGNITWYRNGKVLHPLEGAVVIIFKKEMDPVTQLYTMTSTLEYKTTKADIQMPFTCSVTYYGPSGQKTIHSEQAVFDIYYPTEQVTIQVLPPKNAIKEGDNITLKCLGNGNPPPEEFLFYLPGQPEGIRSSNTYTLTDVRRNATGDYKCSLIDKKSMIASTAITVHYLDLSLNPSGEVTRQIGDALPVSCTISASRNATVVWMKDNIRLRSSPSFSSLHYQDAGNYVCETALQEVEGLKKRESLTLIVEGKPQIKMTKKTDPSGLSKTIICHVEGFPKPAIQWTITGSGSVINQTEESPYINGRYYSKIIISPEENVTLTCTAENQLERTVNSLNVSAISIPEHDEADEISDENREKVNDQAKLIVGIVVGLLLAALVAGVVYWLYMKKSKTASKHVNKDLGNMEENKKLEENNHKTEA
# CD44v3-10 (Homo sapiens) = CD44v3-10 (Homo sapiens) (UniProt P16070); test: SPR
# CD44vRA (Homo sapiens) = CD44vRA (Homo sapiens) (UniProt P16070); test: SPR
# GAL-8, sequence (O00214 whole entry): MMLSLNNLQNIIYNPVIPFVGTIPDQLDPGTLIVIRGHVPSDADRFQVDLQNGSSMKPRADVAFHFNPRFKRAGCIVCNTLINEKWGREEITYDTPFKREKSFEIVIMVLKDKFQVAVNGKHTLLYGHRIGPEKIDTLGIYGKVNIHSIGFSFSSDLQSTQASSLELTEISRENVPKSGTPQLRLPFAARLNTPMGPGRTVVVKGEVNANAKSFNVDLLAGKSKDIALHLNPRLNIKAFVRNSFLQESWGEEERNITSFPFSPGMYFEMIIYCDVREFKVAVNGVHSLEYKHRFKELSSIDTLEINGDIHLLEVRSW
# GAL-3, sequence (P17931 2-250): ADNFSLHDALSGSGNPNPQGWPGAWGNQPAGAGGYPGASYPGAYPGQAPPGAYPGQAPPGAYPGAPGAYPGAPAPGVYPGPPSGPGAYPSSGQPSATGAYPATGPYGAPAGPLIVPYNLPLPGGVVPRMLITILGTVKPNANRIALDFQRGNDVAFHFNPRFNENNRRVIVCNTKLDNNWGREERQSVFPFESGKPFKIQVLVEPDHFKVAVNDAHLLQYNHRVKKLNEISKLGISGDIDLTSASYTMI
# NRP1 (Homo sapiens), sequence (O14786 22-923): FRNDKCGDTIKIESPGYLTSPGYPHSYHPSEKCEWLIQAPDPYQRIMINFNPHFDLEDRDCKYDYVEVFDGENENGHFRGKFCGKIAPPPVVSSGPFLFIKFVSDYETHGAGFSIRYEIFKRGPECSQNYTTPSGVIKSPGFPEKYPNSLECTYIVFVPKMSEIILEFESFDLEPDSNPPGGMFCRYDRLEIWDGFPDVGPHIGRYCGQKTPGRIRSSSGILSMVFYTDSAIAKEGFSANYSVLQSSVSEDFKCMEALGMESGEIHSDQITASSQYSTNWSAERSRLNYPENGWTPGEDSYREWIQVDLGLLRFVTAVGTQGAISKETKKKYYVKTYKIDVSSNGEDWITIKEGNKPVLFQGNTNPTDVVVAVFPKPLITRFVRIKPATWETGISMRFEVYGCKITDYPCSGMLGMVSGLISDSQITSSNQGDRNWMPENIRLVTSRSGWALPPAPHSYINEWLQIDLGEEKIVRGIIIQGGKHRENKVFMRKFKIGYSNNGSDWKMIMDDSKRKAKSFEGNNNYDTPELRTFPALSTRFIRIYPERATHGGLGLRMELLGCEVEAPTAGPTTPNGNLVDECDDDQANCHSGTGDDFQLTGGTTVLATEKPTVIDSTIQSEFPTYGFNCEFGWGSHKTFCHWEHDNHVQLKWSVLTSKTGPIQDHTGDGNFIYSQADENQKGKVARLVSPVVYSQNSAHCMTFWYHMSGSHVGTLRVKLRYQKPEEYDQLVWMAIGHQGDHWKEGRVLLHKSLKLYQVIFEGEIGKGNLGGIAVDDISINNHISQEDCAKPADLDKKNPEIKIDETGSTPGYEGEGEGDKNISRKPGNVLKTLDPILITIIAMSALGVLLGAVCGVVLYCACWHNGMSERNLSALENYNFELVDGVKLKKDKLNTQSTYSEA
# CD13 (Homo sapiens), sequence (P15144 2-967): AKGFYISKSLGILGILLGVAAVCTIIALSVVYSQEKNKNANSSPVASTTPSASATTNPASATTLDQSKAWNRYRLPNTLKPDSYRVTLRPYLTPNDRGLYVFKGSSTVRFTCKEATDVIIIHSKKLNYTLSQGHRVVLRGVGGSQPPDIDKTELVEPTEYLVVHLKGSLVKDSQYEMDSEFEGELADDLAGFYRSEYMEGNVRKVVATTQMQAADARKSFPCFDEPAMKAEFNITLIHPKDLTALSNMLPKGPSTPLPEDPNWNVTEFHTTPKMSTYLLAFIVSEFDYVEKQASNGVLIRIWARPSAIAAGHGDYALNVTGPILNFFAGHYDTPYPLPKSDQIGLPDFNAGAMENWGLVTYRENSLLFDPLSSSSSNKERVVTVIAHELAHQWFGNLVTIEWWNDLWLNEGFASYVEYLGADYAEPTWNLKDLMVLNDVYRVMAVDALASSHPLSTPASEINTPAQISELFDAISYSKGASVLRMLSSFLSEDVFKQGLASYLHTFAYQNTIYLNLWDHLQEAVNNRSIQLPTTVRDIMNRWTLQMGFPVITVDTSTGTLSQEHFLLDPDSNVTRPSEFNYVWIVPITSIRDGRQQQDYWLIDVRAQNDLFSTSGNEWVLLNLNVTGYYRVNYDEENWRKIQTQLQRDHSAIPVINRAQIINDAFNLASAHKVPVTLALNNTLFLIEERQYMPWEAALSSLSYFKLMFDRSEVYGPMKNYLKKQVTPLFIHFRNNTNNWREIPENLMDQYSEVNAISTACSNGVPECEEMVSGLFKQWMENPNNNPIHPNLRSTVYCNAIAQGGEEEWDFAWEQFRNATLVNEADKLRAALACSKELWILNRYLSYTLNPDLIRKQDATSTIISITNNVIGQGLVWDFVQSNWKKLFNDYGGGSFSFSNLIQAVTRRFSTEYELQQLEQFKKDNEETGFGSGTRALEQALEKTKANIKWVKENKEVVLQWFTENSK
# JAG1 (Homo sapiens), sequence (P78504 34-1218): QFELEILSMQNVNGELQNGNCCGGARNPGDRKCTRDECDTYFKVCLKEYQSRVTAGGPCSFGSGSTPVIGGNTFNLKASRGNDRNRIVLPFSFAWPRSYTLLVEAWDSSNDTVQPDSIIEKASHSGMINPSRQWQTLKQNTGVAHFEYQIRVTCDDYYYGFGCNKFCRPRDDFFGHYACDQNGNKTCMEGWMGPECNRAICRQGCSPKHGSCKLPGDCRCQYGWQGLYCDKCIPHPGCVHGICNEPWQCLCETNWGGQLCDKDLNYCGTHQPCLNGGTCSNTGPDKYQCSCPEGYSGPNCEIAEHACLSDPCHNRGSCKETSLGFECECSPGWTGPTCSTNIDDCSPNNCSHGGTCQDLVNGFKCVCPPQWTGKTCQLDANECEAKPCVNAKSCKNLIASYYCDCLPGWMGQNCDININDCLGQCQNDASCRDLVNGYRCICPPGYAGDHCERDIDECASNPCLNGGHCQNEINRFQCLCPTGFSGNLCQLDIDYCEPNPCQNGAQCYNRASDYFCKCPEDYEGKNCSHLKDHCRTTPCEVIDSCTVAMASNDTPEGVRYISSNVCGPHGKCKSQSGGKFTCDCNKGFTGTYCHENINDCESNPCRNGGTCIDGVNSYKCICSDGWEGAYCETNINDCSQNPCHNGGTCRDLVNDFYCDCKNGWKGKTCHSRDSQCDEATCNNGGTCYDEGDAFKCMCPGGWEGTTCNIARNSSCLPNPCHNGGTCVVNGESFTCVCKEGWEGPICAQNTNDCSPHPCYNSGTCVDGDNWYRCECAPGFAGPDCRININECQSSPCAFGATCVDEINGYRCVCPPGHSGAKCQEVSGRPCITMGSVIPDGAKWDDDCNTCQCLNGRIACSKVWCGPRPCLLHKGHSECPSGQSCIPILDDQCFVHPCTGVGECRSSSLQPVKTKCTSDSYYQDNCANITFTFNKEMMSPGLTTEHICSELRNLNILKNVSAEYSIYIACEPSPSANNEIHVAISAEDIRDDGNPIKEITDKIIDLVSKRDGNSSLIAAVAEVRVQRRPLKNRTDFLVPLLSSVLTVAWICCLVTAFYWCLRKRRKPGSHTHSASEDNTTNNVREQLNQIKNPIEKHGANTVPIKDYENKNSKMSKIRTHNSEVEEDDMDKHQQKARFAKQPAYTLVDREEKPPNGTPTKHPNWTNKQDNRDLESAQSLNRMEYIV
# GAL-1, sequence (P09382 2-135): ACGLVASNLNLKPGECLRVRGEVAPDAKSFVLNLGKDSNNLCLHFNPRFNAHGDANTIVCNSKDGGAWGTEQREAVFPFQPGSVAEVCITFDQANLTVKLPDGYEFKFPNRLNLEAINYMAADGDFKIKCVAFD
substance,measurement,setting,value
GAL-1 (from UniProt P09382),Kd,NRP1 (Homo sapiens),109 nM
GAL-3 (from UniProt P17931),Kd,JAG1 (Homo sapiens),8910 nM
same,Kd,CD13 (Homo sapiens),349 nM
same,Kd,DLL4 (Homo sapiens),8520 nM
same,Kd,CD146 ECD (Homo sapiens),1100 nM
GAL-4 (from UniProt P56470),Kd,CEA (Homo sapiens),20 nM
GAL-8 (from UniProt O00214),Kd,CD44s (Homo sapiens),10000 nM
same,Kd,ALCAM (Homo sapiens),3190 nM and 2000 nM
same,Kd,CD44v3-10 (Homo sapiens),27 nM
same,Kd,CD44vRA (Homo sapiens),5.8 nM
